According to the supplement of paper PMC9170038:

Key:
MS2 coat protein [1] = test: apparent KD of MS2 coat protein; designed switch direction (-1 OFF switch, 1 ON switch): 1; higher = weaker reporter binding; details: Eterna round: R98
Protocol: (§1)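 RNA-MaP: designed FMN/MS2 RNA switches (84 nt design region) are transcribed on-chip within common flanks and titrated with SNAP-549-labelled MS2 coat protein (about 1-3000 nM) in 100 mM Tris pH 7.5, 80 mM KCl, 4 mM MgCl2, without or with 200 uM FMN. Median apparent KD per design; activation ratio = KD,OFF / KD,ON.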

MS2 coat protein [2] = test: apparent KD of MS2 coat protein; higher = weaker reporter binding; details: Eterna round: R101
Protocol: as §1

MS2 coat protein [3] = test: apparent KD of MS2 coat protein, switch ON state; designed switch direction (-1 OFF switch, 1 ON switch): 1; higher = weaker reporter binding; details: FMN input: 0 or 200 uM; Eterna round: R93 (includes R88 designs)
How it was run: (§2)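 Titrations with SNAP-549-labelled MS2 coat protein ran in twofold steps from 0.7 or 1.5 nM to 3 µM, each step taking 0.8–1.5 h at the start and 10–20 min toward the end. The targets were designed RNA switches transcribed on-chip from Illumina sequencing clusters, held in 100 mM Tris-HCl pH 7.5, 80 mM KCl, 4 mM MgCl2, without or with constant ligand. Apparent KD was taken per design as the median of normalised cluster binding-curve fits.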

MS2 coat protein [4] = test: apparent KD of MS2 coat protein, switch OFF state (with FMN for OFF switches, without FMN for ON switches); designed switch direction (-1 OFF switch, 1 ON switch): 1; higher = weaker reporter binding; details: FMN input: 0 or 200 uM; Eterna round: R93 (includes R88 designs)
How it was run: as §2

Sequence: AAAACAUGAGGAUCACCCAUGUAAAGAUCGGUUAUUAAAAGUGAGGAUAUACAAAAUUUUAUAUAGUAGAAGGCACUGGGUACA [JR_SSNG3_Sub001]
- apparent KD of MS2 coat protein (MS2 coat protein [1]; input ligand: FMN 200 uM): 28.9 nM
- apparent KD of MS2 coat protein (MS2 coat protein [1]; input ligand: none): 27.8 nM

Sequence: AAAUAACUUGAAGGAUAUCAGGGUGCACCUCAGUAAAACUGAGGUGCACCCUGAGAAGGUCGAGGAUCACCCGAUCUAAAUAAA [#SharedSequence SLExNG1: 3-2] (puzzle (switch architecture): Small Loop Exclusion NG 1)
- apparent KD of MS2 coat protein (MS2 coat protein [2]; input ligand: FMN 200 uM): 13.5 nM
- apparent KD of MS2 coat protein (MS2 coat protein [2]; input ligand: none): 9.19 nM

Sequence: AAAUAACUUGAAGGAUAUGACCCUCGAGGUGACUAAAAGUCACCUCGAGGGUCAGAAGGUCGAGGAUCACCCGAUCUAAAUAAA [#SharedSequence SLExNG1: 3-1] (puzzle (switch architecture): Small Loop Exclusion NG 1)
- apparent KD of MS2 coat protein (MS2 coat protein [2]; input ligand: FMN 200 uM): 24.6 nM
- apparent KD of MS2 coat protein (MS2 coat protein [2]; input ligand: none): 10.2 nM

Sequence: AGGUAUACUUAGAAGGCGUGGACGAAACGUCCACGAGGAUAUGAGGAUCACCCAUAUCAGGUCAGCCUGCAAAGCAGGCUGACC [#SharedSequence - IExNG1: 8-2] (puzzle (switch architecture): Inverted Exclusion NG 1)
- apparent KD of MS2 coat protein (MS2 coat protein [2]; input ligand: FMN 200 uM): 43.9 nM
- apparent KD of MS2 coat protein (MS2 coat protein [2]; input ligand: none): 12.2 nM

Sequence: CAACUGGCACAGAAGGGUGACAUGAGGAUCACCCAUGUAGCGUGGCACUCAGGAGGAGCCACGCCACAGGAUAUGUGCCGACAC [Beisreriar] (puzzle (switch architecture): Inverted Same State NG 2)
- apparent KD of MS2 coat protein (MS2 coat protein [2]; input ligand: FMN 200 uM): 45.7 nM
- apparent KD of MS2 coat protein (MS2 coat protein [2]; input ligand: none): 29.9 nM

Sequence: CCACAACAUUGAGGAUAUGCACAGGAUCACCGUGUAGAAGGCAUCAGGGAGAAGGUGCAGAGGAUCACCCUGUAAGGAUAUCUA [pwkr2 ssNG1 DX.8]
- apparent KD of MS2 coat protein (MS2 coat protein [1]; input ligand: FMN 200 uM): 133 nM
- apparent KD of MS2 coat protein (MS2 coat protein [1]; input ligand: none): 340 nM

Sequence: CCGACGCCUCAGAAGGCACUCGCAUAAUGCGAGUGAGGAUAUGAGGAUCACCCAUAUCAACGUCGGAGUCACCGAAACGGUGAC [#SharedSequence - IEx NG 1-2] (puzzle (switch architecture): Inverted Exclusion NG 1)
- apparent KD of MS2 coat protein (MS2 coat protein [2]; input ligand: FMN 200 uM): 78.1 nM

Sequence: CCGAUGCAAAUAAAACAUGAGGAUCACCCAUGUGAGUCUCAUGAGGAUAUGCAGGUCUUUGACUUGCAGAAGGCAUGGCGUCGG [Mat - Same State NG 3 - JL Mod - D70]
- apparent KD of MS2 coat protein (MS2 coat protein [1]; input ligand: FMN 200 uM): 138 nM
- apparent KD of MS2 coat protein (MS2 coat protein [1]; input ligand: none): 1050 nM

Sequence: GACGAAAUCUUAGGAUAUCGAGUGGAAUACACUCGAGAAGGAAGAUAUACCUGAGGAUCACCCAGGUAAAACUGGACGUCAAUA [Same State NG1 - A3C, U17G Submission 8H U68A, U7A]
- apparent KD of MS2 coat protein (MS2 coat protein [1]; input ligand: FMN 200 uM): 26.6 nM
- apparent KD of MS2 coat protein (MS2 coat protein [1]; input ligand: none): 29.8 nM

Sequence: GCACUCAAGUUAGGAUAUGGAUCGGAAAACGAUCCAGAAGGAACAUGAAAACAUGAGCAUCAGCCAUGUUCCAGAAACGAGUGC [SameSame 13 - Jieux - Same State NG 1]
- apparent KD of MS2 coat protein (MS2 coat protein [1]; input ligand: FMN 200 uM): 22.8 nM
- apparent KD of MS2 coat protein (MS2 coat protein [1]; input ligand: none): 69.9 nM

Sequence: GCAGAAGGUGCGGAGGAUCACCCUGUAAGGAUAUGCAUUAGCAAGGAUAUACAGAGGAUCACCCUGUAGAAGGUGCACUUCUAA [pwkr2 ssNG3 DX.7]
- apparent KD of MS2 coat protein (MS2 coat protein [1]; input ligand: FMN 200 uM): 1290 nM
- apparent KD of MS2 coat protein (MS2 coat protein [1]; input ligand: none): 1170 nM

Sequence: GCUCUCACUUGAGGAUAUCGAGUGGAAUACACUCGAGAAGGCAGGAAAACCUGAGGAUCACCCAGGUAACUGGAAAGAGAGCAA [Same State NG1 - A3C, U17G Submission 5G-G46A]
- apparent KD of MS2 coat protein (MS2 coat protein [1]; input ligand: FMN 200 uM): 20.3 nM
- apparent KD of MS2 coat protein (MS2 coat protein [1]; input ligand: none): 16.1 nM

Sequence: GCUGUCGCAUGAGGAUAUGGUCACGUUUCGUGACCAGAAGGCAUGUCAAUAGACAUGAGGAUCACCCAUGUAGUAAAGACAGCA [Mat - Same State NG 1 - JL Mod - D40]
- apparent KD of MS2 coat protein (MS2 coat protein [1]; input ligand: FMN 200 uM): 35.1 nM
- apparent KD of MS2 coat protein (MS2 coat protein [1]; input ligand: none): 386 nM

Sequence: GGACAUCCCACAGGAUAUGCUGGACUUUGUCCAGCAGAAGGGUGAAACAUGAGGAUCACCCAUGUAAGGAUGUCCAUAUUUAAU [Denovo 40]
- apparent KD of MS2 coat protein (MS2 coat protein [1]; input ligand: FMN 200 uM): 217 nM
- apparent KD of MS2 coat protein (MS2 coat protein [1]; input ligand: none): 2190 nM

Sequence: GGAGAUACAUGAGGAUCACCCAUGUAGGAUAUAUAGUAUAUAUAUAUCGAAAGAUAUAUAUAUAUAUAGAAGGGCGUGCACACC [#LOL-16] (puzzle (switch architecture): Small Loop Exclusion NG 3)
- apparent KD of MS2 coat protein (MS2 coat protein [2]; input ligand: FMN 200 uM): 6.74 nM
- apparent KD of MS2 coat protein (MS2 coat protein [2]; input ligand: none): 8.34 nM

Sequence: GGAGAUACAUGAGGAUCACCCAUGUAGGAUAUCGGGCCCAUAUACGGCGAAAGCCGUAUAUGGGCCGAGAAGGGCGUACACACC [#LOL-7] (puzzle (switch architecture): Small Loop Exclusion NG 3)
- apparent KD of MS2 coat protein (MS2 coat protein [2]; input ligand: FMN 200 uM): 7.96 nM
- apparent KD of MS2 coat protein (MS2 coat protein [2]; input ligand: none): 8.78 nM

Sequence: GUAGCAUACUGAGGAUAUUCAUAUAAUAAAUAAACAUGAGGAUCACCCAUGUGGCGAAAGCCUUGGGAGAAGGCAGAAUGCUAC [Xeonanis 55 7]
- apparent KD of MS2 coat protein (MS2 coat protein [1]; input ligand: FMN 200 uM): 38.3 nM
- apparent KD of MS2 coat protein (MS2 coat protein [1]; input ligand: none): 511 nM

Sequence: GUAGCUAUCGGAGGAUAUUCAUAGCCGAGAGGCACAUGAGGAUCACCCAUGUGCGGAAACGCUUGGGAGAAGGCCGAUAGCUAC [Mat - Same State NG 2 - JL Mod - D77]
- apparent KD of MS2 coat protein (MS2 coat protein [1]; input ligand: FMN 200 uM): 14.3 nM
- apparent KD of MS2 coat protein (MS2 coat protein [1]; input ligand: none): 21.5 nM

Sequence: GUAUGCAUGAGGUAGGAUAUCCAAAACAAAACAUGAGGAUCACCCAUGUAAACAAACAACAAAUGGGAGAAGGACCACAUGUAUAC [Ex6 sub 5]
- apparent KD of MS2 coat protein (MS2 coat protein [3]): 13.1 nM
- apparent KD of MS2 coat protein (MS2 coat protein [4]): 27.1 nM

Sequence: GUGCACAUUCGAGGAUAUCGGAGAGGAGUCCUUCGAGAAGGCGAUUCAUGCUGUGUUAUUCUGGACAUGAGGAUCACCCAUGUG [LRO019_SS NG 1 mod JR_SSNG1_Sub034]
- apparent KD of MS2 coat protein (MS2 coat protein [1]; input ligand: FMN 200 uM): 107 nM
- apparent KD of MS2 coat protein (MS2 coat protein [1]; input ligand: none): 149 nM

Sequence: UAACAGCACAGGUAGGAUAUGUAGGGUGGUACAUGAGGAUCACCCAUGUAUCCACCCUUCGAAAGGCAGAAGGGCCUGUCGCUAC [Velabibe]
- apparent KD of MS2 coat protein (MS2 coat protein [3]): 14.6 nM
- apparent KD of MS2 coat protein (MS2 coat protein [4]): 20.4 nM

Sequence: UAACUAAUAUACACAUGAGGAUCACCCAUGUCCACCCGUGGACAGGAUAUCUGGCCGCGCCGGCUGGAGAAGGGUCCGUAUUGU [Arianesge]
- apparent KD of MS2 coat protein (MS2 coat protein [1]; input ligand: FMN 200 uM): 172 nM
- apparent KD of MS2 coat protein (MS2 coat protein [1]; input ligand: none): 56.2 nM

Sequence: UAAUAAUAAACCAAGGAUAUGGAGUAAAGAACAUGAGGAUCACCCAUGUGUAGCGUGGAAUAGUACCAGAAGGUGGAGUGAAAUG [JR_SS002_Sub1003]
- apparent KD of MS2 coat protein (MS2 coat protein [3]): 54.1 nM
- apparent KD of MS2 coat protein (MS2 coat protein [4]): 52.3 nM

Sequence: UAGAGAACAGGGUAGGAUAUGCAUGGUCGUACAUGAGGAUCACCCAUGUAGUCUAGAAAAUAAAUGCAGAAGGACCAAAAGAAAA [Edsodiin]
- apparent KD of MS2 coat protein (MS2 coat protein [3]): 15.6 nM
- apparent KD of MS2 coat protein (MS2 coat protein [4]): 32 nM

Sequence: UAGAGACAUGAGGAUCACCCAUGUAGGAUUAUGGGAGGAUAUACAAAGACGAGAGUCAGAGUAGAAGGCCUAGGAU [salish99-ss1-134(!)]
- apparent KD of MS2 coat protein (MS2 coat protein [3]): 27.4 nM
- apparent KD of MS2 coat protein (MS2 coat protein [4]): 61.4 nM

Sequence: UAUAAACAUGAGGAUCACCCAUGUAGAAAUAUGGGAGGAUAUACGAAGACGAAAGUCAAAGUAGAAGGCCUAAUAU [Mat - Same State 1 - Eli mod - D113]
- apparent KD of MS2 coat protein (MS2 coat protein [3]): 16.9 nM
- apparent KD of MS2 coat protein (MS2 coat protein [4]): 49.2 nM

Sequence: UCCUUACAUGAGGAUCACCCAUGUCGCAGGAAUCAAGGAUAUGGGACCGCAAUGCGGAAACCAGAAGGUGACAAAA [Zaesor]
- apparent KD of MS2 coat protein (MS2 coat protein [3]): 158 nM
- apparent KD of MS2 coat protein (MS2 coat protein [4]): 322 nM

Sequence: UUAUUACAUGAGGAUCACCCAUGUUUAGUGGUGACAGGAUAUACGAAAAAAAAAAAAAAAGUAGAAGGGUCUUAUU [SS 1.1]
- apparent KD of MS2 coat protein (MS2 coat protein [3]): 162 nM
- apparent KD of MS2 coat protein (MS2 coat protein [4]): 50.5 nM

Sequence: UUUGGGAGCACAGGAUAUGGCACCUCGACCGUGCCAGAAGGGUGAUUCUGUUGGUGGCCACAUGAGGAUCACCCAUGUGCCUCC [Araterin]
- apparent KD of MS2 coat protein (MS2 coat protein [1]; input ligand: FMN 200 uM): 21.5 nM
- apparent KD of MS2 coat protein (MS2 coat protein [1]; input ligand: none): 275 nM
